Test results from the supplement of paper PMC10065799, “High-throughput profiling of sequence recognition by tyrosine kinases and SH2 domains using bacterial peptide display” (eLife, 2023).

The sequences below were run on c-Abl (mouse) (assay: phosphorylation enrichment, bacterial display (enrichment ratio); higher = better substrate or ligand; peptides without Tyr show the background).
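Also: 11-residue human phosphosite peptides and single-mutation variants displayed on the E. coli surface, counted by deep sequencing, each peptide's frequency after selection divided by its frequency in the unselected input library; frequency after pTyr selection over input frequency; kinase dosed for 20-30% of maximal phosphorylation in three min.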

Sequence	phosphorylation enrichment
AEYGLYAAMVR [VSX2_Y222_G223A]	3.28
SCRENYSYSEE [LEMD3_Y258_D260Y]	0.652
YSTPPYLLEAA [BRIP1_Y921_S919P]	1.8
AFGEVYEGQES [ALK_Y1131_V1135E]	0.842
AKIDGYIISFR	0.559
FGFPGYQSKHF [TIMP3_Y177_YF]	0.574
ENELTYYCCKK [CD59_Y86]	1.26
KMKGDYFRSLA [YWHAG_Y130_Y133S_YF]	0.521
LNERHYGALIG [BPGM_Y92]	0.461
FGIAQYCCRMG [LRRK2_Y2023_YF]	1.34
SHRQDYLVGNK [GSTA1_Y147_G144R]	0.867
LPKVSYVKAID [GLRA1_Y307]	0.444
RNAAEYPLSSG [ABL1_Y139_L140P]	0.647
RRKRAYVEIEY [MAK16_Y282_Q277R]	1.04
IDLEKYKLLPE [DHFR_Y157]	0.775
TWSRSYRSDRL [CRYBB1_Y131_S129R]	0.586

What follows are sequences tested against Hck (UniProt P08631) in the same assay as above.
Sequence of Hck (P08631 whole entry, looked up): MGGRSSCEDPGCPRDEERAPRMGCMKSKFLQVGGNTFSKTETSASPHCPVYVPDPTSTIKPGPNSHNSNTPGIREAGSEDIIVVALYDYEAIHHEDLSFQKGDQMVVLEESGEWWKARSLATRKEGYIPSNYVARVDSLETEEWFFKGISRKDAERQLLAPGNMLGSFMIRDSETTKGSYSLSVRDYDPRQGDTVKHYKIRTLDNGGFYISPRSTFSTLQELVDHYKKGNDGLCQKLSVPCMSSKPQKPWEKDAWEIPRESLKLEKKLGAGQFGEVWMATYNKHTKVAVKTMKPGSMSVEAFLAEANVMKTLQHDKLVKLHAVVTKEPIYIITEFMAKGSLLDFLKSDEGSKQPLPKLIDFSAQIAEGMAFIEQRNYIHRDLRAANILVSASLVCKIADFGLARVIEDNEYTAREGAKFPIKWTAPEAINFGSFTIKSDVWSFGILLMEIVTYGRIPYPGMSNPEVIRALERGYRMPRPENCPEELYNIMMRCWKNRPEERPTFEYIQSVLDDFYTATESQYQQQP

Sequence	phosphorylation enrichment
AEYGLYAAMVR [VSX2_Y222_G223A]	7.14
SCRENYSYSEE [LEMD3_Y258_D260Y]	0.548
YSTPPYLLEAA [BRIP1_Y921_S919P]	1.61
AFGEVYEGQES [ALK_Y1131_V1135E]	0.629
AKIDGYIISFR	0.365
FGFPGYQSKHF [TIMP3_Y177_YF]	0.496
ENELTYYCCKK [CD59_Y86]	2.47
KMKGDYFRSLA [YWHAG_Y130_Y133S_YF]	0.484
LNERHYGALIG [BPGM_Y92]	0.561
FGIAQYCCRMG [LRRK2_Y2023_YF]	0.777
SHRQDYLVGNK [GSTA1_Y147_G144R]	0.397
LPKVSYVKAID [GLRA1_Y307]	0.434
RNAAEYPLSSG [ABL1_Y139_L140P]	0.596
RRKRAYVEIEY [MAK16_Y282_Q277R]	1.13
IDLEKYKLLPE [DHFR_Y157]	0.433
TWSRSYRSDRL [CRYBB1_Y131_S129R]	0.614

What follows are sequences tested on AncSZ in the same assay as above.

Sequence	phosphorylation enrichment
AEYGLYAAMVR [VSX2_Y222_G223A]	1.65
SCRENYSYSEE [LEMD3_Y258_D260Y]	1.18
YSTPPYLLEAA [BRIP1_Y921_S919P]	1.77
AFGEVYEGQES [ALK_Y1131_V1135E]	1.32
AKIDGYIISFR	1.1
FGFPGYQSKHF [TIMP3_Y177_YF]	0.534
ENELTYYCCKK [CD59_Y86]	1.57
KMKGDYFRSLA [YWHAG_Y130_Y133S_YF]	0.676
LNERHYGALIG [BPGM_Y92]	0.534
FGIAQYCCRMG [LRRK2_Y2023_YF]	0.908
SHRQDYLVGNK [GSTA1_Y147_G144R]	0.441
LPKVSYVKAID [GLRA1_Y307]	0.629
RNAAEYPLSSG [ABL1_Y139_L140P]	0.426
RRKRAYVEIEY [MAK16_Y282_Q277R]	1.37
IDLEKYKLLPE [DHFR_Y157]	0.956
TWSRSYRSDRL [CRYBB1_Y131_S129R]	0.676

These sequences were tested against FGFR3 (UniProt P22607) in the same assay as above.
Sequence of FGFR3 (P22607 whole entry, looked up): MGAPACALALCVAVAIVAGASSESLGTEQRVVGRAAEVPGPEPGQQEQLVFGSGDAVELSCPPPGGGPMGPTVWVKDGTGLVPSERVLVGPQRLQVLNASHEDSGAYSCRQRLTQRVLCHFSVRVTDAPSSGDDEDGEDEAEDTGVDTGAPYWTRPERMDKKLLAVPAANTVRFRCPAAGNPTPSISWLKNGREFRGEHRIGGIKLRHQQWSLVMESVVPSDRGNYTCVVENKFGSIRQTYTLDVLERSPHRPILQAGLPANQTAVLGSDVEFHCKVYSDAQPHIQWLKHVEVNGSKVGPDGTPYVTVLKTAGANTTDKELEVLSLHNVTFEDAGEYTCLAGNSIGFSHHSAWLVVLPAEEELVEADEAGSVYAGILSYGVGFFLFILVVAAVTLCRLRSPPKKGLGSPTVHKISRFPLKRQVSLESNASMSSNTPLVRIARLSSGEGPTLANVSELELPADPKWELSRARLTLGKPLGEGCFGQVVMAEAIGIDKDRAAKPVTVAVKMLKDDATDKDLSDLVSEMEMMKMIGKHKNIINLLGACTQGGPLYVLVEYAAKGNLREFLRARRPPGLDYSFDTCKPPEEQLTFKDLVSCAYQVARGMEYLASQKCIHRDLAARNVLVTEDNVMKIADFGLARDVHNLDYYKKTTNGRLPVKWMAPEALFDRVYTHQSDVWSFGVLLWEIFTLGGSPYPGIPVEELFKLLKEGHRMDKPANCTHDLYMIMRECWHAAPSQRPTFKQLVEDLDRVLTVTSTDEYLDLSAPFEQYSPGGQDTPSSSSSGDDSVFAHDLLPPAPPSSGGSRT

Sequence	phosphorylation enrichment
AEYGLYAAMVR [VSX2_Y222_G223A]	0.895
SCRENYSYSEE [LEMD3_Y258_D260Y]	0.76
YSTPPYLLEAA [BRIP1_Y921_S919P]	0.935
AFGEVYEGQES [ALK_Y1131_V1135E]	0.645
AKIDGYIISFR	0.654
FGFPGYQSKHF [TIMP3_Y177_YF]	0.499
ENELTYYCCKK [CD59_Y86]	1.22
KMKGDYFRSLA [YWHAG_Y130_Y133S_YF]	0.602
LNERHYGALIG [BPGM_Y92]	0.47
FGIAQYCCRMG [LRRK2_Y2023_YF]	0.584
SHRQDYLVGNK [GSTA1_Y147_G144R]	0.415
LPKVSYVKAID [GLRA1_Y307]	0.433
RNAAEYPLSSG [ABL1_Y139_L140P]	0.485
RRKRAYVEIEY [MAK16_Y282_Q277R]	1.18
IDLEKYKLLPE [DHFR_Y157]	0.683
TWSRSYRSDRL [CRYBB1_Y131_S129R]	0.494

These sequences were tested against FGFR1 (UniProt P11362) in the same assay as above.
Sequence of FGFR1 (P11362 whole entry, looked up): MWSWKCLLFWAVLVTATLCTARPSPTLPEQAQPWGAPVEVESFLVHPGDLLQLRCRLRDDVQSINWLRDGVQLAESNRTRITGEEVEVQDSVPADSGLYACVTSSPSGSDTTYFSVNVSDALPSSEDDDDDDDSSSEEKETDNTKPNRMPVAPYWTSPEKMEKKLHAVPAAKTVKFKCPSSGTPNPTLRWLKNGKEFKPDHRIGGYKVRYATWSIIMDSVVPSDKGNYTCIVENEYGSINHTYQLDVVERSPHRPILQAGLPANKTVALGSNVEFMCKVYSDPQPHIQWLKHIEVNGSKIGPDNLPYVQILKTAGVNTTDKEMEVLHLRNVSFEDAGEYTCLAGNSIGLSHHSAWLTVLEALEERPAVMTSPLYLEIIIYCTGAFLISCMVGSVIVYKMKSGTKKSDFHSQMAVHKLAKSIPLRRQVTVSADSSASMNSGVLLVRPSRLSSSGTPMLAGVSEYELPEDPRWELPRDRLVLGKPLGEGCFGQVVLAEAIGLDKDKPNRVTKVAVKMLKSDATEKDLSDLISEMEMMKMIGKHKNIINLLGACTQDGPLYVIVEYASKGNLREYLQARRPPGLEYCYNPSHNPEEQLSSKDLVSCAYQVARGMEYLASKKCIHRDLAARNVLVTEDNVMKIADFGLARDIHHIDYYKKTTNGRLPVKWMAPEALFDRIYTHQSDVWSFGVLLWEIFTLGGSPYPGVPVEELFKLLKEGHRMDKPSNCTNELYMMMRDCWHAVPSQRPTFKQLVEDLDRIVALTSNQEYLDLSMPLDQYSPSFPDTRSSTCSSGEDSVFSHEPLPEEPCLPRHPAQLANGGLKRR

Sequence	phosphorylation enrichment
AEYGLYAAMVR [VSX2_Y222_G223A]	0.639
SCRENYSYSEE [LEMD3_Y258_D260Y]	0.561
YSTPPYLLEAA [BRIP1_Y921_S919P]	1.16
AFGEVYEGQES [ALK_Y1131_V1135E]	0.485
AKIDGYIISFR	0.472
FGFPGYQSKHF [TIMP3_Y177_YF]	0.47
ENELTYYCCKK [CD59_Y86]	2.21
KMKGDYFRSLA [YWHAG_Y130_Y133S_YF]	0.456
LNERHYGALIG [BPGM_Y92]	0.42
FGIAQYCCRMG [LRRK2_Y2023_YF]	0.614
SHRQDYLVGNK [GSTA1_Y147_G144R]	0.324
LPKVSYVKAID [GLRA1_Y307]	0.423
RNAAEYPLSSG [ABL1_Y139_L140P]	0.445
RRKRAYVEIEY [MAK16_Y282_Q277R]	0.731
IDLEKYKLLPE [DHFR_Y157]	0.546
TWSRSYRSDRL [CRYBB1_Y131_S129R]	0.607

These sequences were tested on c-Src in the same assay as above.

Sequence	phosphorylation enrichment
AEYGLYAAMVR [VSX2_Y222_G223A]	4.7
SCRENYSYSEE [LEMD3_Y258_D260Y]	0.47
YSTPPYLLEAA [BRIP1_Y921_S919P]	1.6
AFGEVYEGQES [ALK_Y1131_V1135E]	0.75
AKIDGYIISFR	0.315
FGFPGYQSKHF [TIMP3_Y177_YF]	0.401
ENELTYYCCKK [CD59_Y86]	2.74
KMKGDYFRSLA [YWHAG_Y130_Y133S_YF]	0.456
LNERHYGALIG [BPGM_Y92]	0.639
FGIAQYCCRMG [LRRK2_Y2023_YF]	0.417
SHRQDYLVGNK [GSTA1_Y147_G144R]	0.385
LPKVSYVKAID [GLRA1_Y307]	0.338
RNAAEYPLSSG [ABL1_Y139_L140P]	0.522
RRKRAYVEIEY [MAK16_Y282_Q277R]	0.999
IDLEKYKLLPE [DHFR_Y157]	0.39
TWSRSYRSDRL [CRYBB1_Y131_S129R]	0.545

Each sequence was assayed against Jak2 (UniProt O60674) in the same assay as above.
Sequence of Jak2 (O60674 whole entry, looked up): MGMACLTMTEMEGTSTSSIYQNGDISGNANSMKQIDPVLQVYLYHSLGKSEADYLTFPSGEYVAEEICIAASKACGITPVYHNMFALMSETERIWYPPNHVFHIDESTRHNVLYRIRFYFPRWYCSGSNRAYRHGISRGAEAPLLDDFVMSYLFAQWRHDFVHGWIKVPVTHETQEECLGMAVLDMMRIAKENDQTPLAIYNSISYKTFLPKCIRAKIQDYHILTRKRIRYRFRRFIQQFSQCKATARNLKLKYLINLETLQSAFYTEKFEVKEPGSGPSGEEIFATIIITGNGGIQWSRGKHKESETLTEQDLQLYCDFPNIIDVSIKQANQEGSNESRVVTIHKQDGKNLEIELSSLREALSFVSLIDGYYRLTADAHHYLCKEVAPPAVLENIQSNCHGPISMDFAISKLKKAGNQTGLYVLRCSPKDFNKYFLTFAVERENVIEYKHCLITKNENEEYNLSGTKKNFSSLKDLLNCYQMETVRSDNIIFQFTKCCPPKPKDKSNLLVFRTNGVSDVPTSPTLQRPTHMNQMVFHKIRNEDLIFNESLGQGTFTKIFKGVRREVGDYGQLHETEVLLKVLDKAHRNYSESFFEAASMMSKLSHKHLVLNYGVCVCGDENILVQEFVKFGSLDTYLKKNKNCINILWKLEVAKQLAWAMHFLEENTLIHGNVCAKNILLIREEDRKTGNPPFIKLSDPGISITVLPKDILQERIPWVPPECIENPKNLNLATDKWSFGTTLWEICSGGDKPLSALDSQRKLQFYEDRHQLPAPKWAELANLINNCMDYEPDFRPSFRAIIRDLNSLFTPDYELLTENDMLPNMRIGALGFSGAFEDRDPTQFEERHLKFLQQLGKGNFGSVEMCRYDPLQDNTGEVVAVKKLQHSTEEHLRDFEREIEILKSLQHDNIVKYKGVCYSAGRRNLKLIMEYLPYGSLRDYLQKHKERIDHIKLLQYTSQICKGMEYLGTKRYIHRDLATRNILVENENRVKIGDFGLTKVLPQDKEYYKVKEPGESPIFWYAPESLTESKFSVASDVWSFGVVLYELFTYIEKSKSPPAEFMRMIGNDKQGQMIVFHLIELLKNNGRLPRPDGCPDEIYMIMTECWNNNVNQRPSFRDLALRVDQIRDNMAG

Sequence	phosphorylation enrichment
AEYGLYAAMVR [VSX2_Y222_G223A]	1.16
SCRENYSYSEE [LEMD3_Y258_D260Y]	0.892
YSTPPYLLEAA [BRIP1_Y921_S919P]	1.04
AFGEVYEGQES [ALK_Y1131_V1135E]	1.14
AKIDGYIISFR	1.06
FGFPGYQSKHF [TIMP3_Y177_YF]	0.5
ENELTYYCCKK [CD59_Y86]	1.77
KMKGDYFRSLA [YWHAG_Y130_Y133S_YF]	0.633
LNERHYGALIG [BPGM_Y92]	0.571
FGIAQYCCRMG [LRRK2_Y2023_YF]	0.625
SHRQDYLVGNK [GSTA1_Y147_G144R]	0.466
LPKVSYVKAID [GLRA1_Y307]	0.563
RNAAEYPLSSG [ABL1_Y139_L140P]	0.41
RRKRAYVEIEY [MAK16_Y282_Q277R]	1.54
IDLEKYKLLPE [DHFR_Y157]	0.92
TWSRSYRSDRL [CRYBB1_Y131_S129R]	0.778

The sequences below were run against EPHB1 (UniProt P54762) in the same assay as above.
Sequence of EPHB1 (P54762 whole entry, looked up): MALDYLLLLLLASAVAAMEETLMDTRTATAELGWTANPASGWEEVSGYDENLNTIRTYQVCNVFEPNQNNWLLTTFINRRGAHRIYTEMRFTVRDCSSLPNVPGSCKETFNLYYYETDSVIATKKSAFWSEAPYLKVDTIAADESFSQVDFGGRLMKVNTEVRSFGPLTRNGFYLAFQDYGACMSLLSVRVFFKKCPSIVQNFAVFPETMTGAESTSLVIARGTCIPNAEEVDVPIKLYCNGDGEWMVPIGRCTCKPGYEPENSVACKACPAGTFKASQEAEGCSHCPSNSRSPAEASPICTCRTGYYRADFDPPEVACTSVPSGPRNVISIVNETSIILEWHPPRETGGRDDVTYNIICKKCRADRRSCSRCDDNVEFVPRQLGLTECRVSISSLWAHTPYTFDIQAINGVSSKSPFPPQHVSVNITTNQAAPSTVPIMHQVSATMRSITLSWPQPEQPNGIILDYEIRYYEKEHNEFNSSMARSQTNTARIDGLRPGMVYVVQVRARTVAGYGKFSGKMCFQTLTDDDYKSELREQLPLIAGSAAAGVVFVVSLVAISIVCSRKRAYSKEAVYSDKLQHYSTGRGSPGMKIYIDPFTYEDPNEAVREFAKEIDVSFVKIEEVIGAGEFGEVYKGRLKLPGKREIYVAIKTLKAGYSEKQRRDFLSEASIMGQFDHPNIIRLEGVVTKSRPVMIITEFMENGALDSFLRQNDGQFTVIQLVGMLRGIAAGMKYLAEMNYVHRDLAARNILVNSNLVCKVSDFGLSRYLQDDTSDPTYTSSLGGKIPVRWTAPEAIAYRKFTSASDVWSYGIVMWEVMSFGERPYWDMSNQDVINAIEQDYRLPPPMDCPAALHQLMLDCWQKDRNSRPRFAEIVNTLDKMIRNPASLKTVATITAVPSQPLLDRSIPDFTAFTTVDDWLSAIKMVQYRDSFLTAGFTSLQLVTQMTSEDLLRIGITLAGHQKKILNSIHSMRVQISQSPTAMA

Sequence	phosphorylation enrichment
AEYGLYAAMVR [VSX2_Y222_G223A]	8.53
SCRENYSYSEE [LEMD3_Y258_D260Y]	0.66
YSTPPYLLEAA [BRIP1_Y921_S919P]	0.664
AFGEVYEGQES [ALK_Y1131_V1135E]	0.526
AKIDGYIISFR	0.575
FGFPGYQSKHF [TIMP3_Y177_YF]	0.422
ENELTYYCCKK [CD59_Y86]	0.505
KMKGDYFRSLA [YWHAG_Y130_Y133S_YF]	0.457
LNERHYGALIG [BPGM_Y92]	0.319
FGIAQYCCRMG [LRRK2_Y2023_YF]	0.751
SHRQDYLVGNK [GSTA1_Y147_G144R]	0.488
LPKVSYVKAID [GLRA1_Y307]	0.402
RNAAEYPLSSG [ABL1_Y139_L140P]	0.337
RRKRAYVEIEY [MAK16_Y282_Q277R]	1.02
IDLEKYKLLPE [DHFR_Y157]	0.528
TWSRSYRSDRL [CRYBB1_Y131_S129R]	0.445
